# Results as given in article PMC10388305, “Synthesis and Evaluation of a Monomethyl Auristatin E—Integrin αvβ6 Binding Peptide–Drug Conjugate for Tumor Targeted Drug Delivery” (Journal of Medicinal Chemistry, 2023).
# Tests used:
# [1] = Serum stability in human serum; assay type: in vitro ADME; settings: 37 °C, ethanol precipitation, radio RP-HPLC
# Method: The serum stability of [^64Cu]PDC-1 was measured in both human and mouse serum at 37 °C at 1, 4, and 24 h.
# Mouse serum or human serum (0.5 mL) was combined with an aliquot of [^64Cu]PDC-1 (≤25 μL, 3.9–4.7 MBq) and incubated at 37 °C. At each time point (1, 4, and 24 h), an aliquot (50–200 μL) was taken, proteins precipitated with absolute ethanol and removed by centrifugation at 1500g for 4 min. The ethanol solution was diluted with water (1 mL) and analyzed by RP-HPLC.
# DX3puroβ6 (+) cells = assay: Cell binding assay, DX3puroβ6; assay type: cell-based; settings: 1 h, 37 °C, γ-counter, n = 3
# Text: (§1) Binding to cells with minimal to no expression of integrin αvβ6 was low at 4.4 ± 0.1% to DX3puro cells and 7.9 ± 0.4% to pancreatic MIA PaCa-2 cells. Binding of [^64Cu]PDC-1 to DX3puroβ6 (+) and BxPC-3 (+) was reduced by adding increasing amounts of DOTA-PDC-1, illustrating that the αvβ6-selective uptake could be blocked (Figure S3). Internalization of [^64Cu]-PDC-1 into cells was high with >50% of the bound radioactivity internalized for all cells expressing the integrin αvβ6. In comparison, cell binding of [^64Cu]2 to DX3puroβ6 (+) cells was 58.8 ± 2.3, and 3.3 ± 0.4% to the DX3puro (−) cells.
# (§2) Cell binding and internalization assay. Binding and internalization were determined as previously described. […] The fraction of bound radioactivity was determined with a γ-counter (by measuring cell pellet and combined supernatants). To determine the fraction of internalized radioactivity, the cells were re-pelleted, and re-suspended in acidic wash buffer (0.2 M sodium acetate, 0.5 M sodium chloride, pH = 2.5, 300 μL, 4 °C, 5 min) to release surface bound activity, followed by a wash with PBS (300 μL). The internalized fraction was determined with a γ-counter (cell pellet vs. radioactivity released into supernatant). A Wizard 1470 or Wizard 2 2470 automatic γ-counter (Perkin-Elmer, Waltham, MA) was used to measure radioactivity samples. […]
# DX3puro (−) cells = assay: Cell binding assay, DX3puro; assay type: cell-based; settings: 1 h, 37 °C, γ-counter, n = 3
# Text: as §1, §2
smiles,measurement,setting,value
"CC[C@H](C)[C@@H]([C@@H](CC(=O)N1CCC[C@H]1[C@H](OC)[C@@H](C)C(=O)N[C@H](C)[C@@H](O)c1ccccc1)OC)N(C)C(=O)[C@@H](NC(=O)[C@H](C(C)C)N(C)C(=O)OCc1ccc(NC(=O)[C@H](CCCNC(N)=O)NC(=O)[C@@H](NC(=O)CCOCCOCCNC(=O)CCN2C(=O)CC(SC[C@H](NC(=O)CN3CCN(CC(=O)O)CCN(CC(=O)O)CCN(CC(=O)O)CC3)C(=O)NCCOCCOCCOCCOCCOCCOCCOCCOCCOCCOCCOCCOCCOCCOCCOCCOCCOCCOCCOCCOCCOCCOCCOCCOCCOCCOCCOCCOCCC(=O)N[C@@H](CC(N)=O)C(=O)N[C@@H](C)C(=O)N[C@H](C(=O)N3CCC[C@H]3C(=O)N[C@@H](CC(N)=O)C(=O)N[C@@H](CC(C)C)C(=O)N[C@@H](CCCNC(=N)N)C(=O)NCC(=O)N[C@@H](CC(=O)O)C(=O)N[C@@H](CC(C)C)C(=O)N[C@@H](CCC(N)=O)C(=O)N[C@H](C(=O)N[C@@H](CC(C)C)C(=O)N[C@@H](C)C(=O)N[C@@H](CCC(N)=O)C(=O)N[C@@H](CCCNC(=N)N)C(=O)N[C@H](C(=O)N[C@@H](C)C(=O)N[C@@H](CCCNC(=N)N)C(=O)N[C@H](C(=O)NCCOCCOCCOCCOCCOCCOCCOCCOCCOCCOCCOCCOCCOCCOCCOCCOCCOCCOCCOCCOCCOCCOCCOCCOCCOCCOCCOCCOCCC(N)=O)[C@@H](C)O)C(C)C)C(C)C)C(C)C)C2=O)C(C)C)cc1)C(C)C (some centres unmarked) [[^64Cu]PDC-1, metal not drawn]",remaining at 1 h,[1]; 1 h,> 98%
same,remaining at 4 h,[1]; 4 h,> 98%
same,remaining at 24 h,[1]; 24 h,89%
same,Cell binding,DX3puroβ6 (+) cells,67.0 ± 2.3%
same,Cell binding,DX3puro (−) cells,4.4 ± 0.1%
